Series [1] concerns the target T1, Human neutrophil elastase (HNE) (Homo sapiens) (UniProt P08246).
T1 sequence: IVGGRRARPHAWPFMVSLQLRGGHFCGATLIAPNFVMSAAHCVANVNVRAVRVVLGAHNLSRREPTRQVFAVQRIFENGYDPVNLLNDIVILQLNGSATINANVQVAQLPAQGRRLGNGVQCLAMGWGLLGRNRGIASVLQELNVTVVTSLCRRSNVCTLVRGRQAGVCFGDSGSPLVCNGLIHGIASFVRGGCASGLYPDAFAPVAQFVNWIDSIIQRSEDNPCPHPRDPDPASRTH
Put plainly: flow. Conditions: HNE on polystyrene beads, 2 mM MgCl2, 1% BSA, room temperature.

The target of series [2] is T1, Human neutrophil elastase (HNE) (Homo sapiens). Put plainly: filter. Conditions: 150 mM NaCl, 100 mM Tris-HCl pH 7.0, 2 mM MgCl2, 6 mM KCl, 0.02% HSA, 37 C.
For series [3], the target named is T2, Human neutrophil elastase (HNE) (Homo sapiens, UniProt P08246 P08246:30-267). Briefly: filter; 150 mM NaCl, 100 mM Tris-HCl pH 7.0, 2 mM MgCl2, 6 mM KCl, 0.02% HSA, 37 C. The conditions noted are these: tags: Athens Research and Technology, salt-free lyophilized solid; label: fluorescein; G-quartet with duplex ends.
Series [4] has as its target T2, Human neutrophil elastase (HNE). Put plainly: flow; HNE on polystyrene beads, 2 mM MgCl2, 1% BSA, room temperature. Conditions: tags: Athens Research and Technology, salt-free lyophilized solid; label: fluorescein; G-quartet with duplex ends.
Experimental: Beads (0.5% solids) in acetate buffer were coated with HNE (0.5 μg/cm² of bead surface area) for 30 min and then washed and suspended (approx. 5×10⁵ beads/μL) in acetate buffer containing 2% BSA. HNE coated beads were stored at 4° C. until use.
Staining of HNE coated beads was achieved by incubating beads (approx. 3×10⁵) with varying concentrations of fluoresceinated oligonucleotides in 50 μL of binding buffer consisting of 100 mM Tris-HCl (pH 7.0), 0.15M NaCl, 6 mM KCl, 2 mM MgCl₂ and 1% BSA for 30 min at room temperature. The beads were then washed with 2 mL of the same buffer and suspended in 0.5 mL for analysis. Staining with mouse anti-HNE was accomplished in the same method except that bound antibody was detected by a second step fluorescein isothiocyanate (FITC) labeled antibody (X56-FITC). […] Analysis was performed on a FACScan™ flowcytometer (Becton Dickinson). The sensitivity of the flowcytometer was adjusted so that the autofluorescence of the unstained beads was located in the middle of the first decade.
For series [5] the target is unchanged. Briefly: flow; second-step staining with streptavidin-phycoerythrin; affinity lower than direct fluorescence measurement. The conditions noted are these: tags: Athens Research and Technology, salt-free lyophilized solid; label: biotin (streptavidin-phycoerythrin); G-quartet with duplex ends.
The mark [6] stands for this setting: two internal fluoresceins in extension.
Setting [7] is: tail-to-tail dimer via symmetric 3'-3' linker (X) with ethylene glycol linkers and two fluoresceins (LFLXLFL).

The results in this text go back to patent publication US5853984, “Use of nucleic acid ligands in flow cytometry” (NeXstar Pharmaceuticals, Inc.).

For the molecule “GNCACAGTCGACGATACTGCGTGGGTTGGGGCGGGTAGGGCCAGCAGTCTCGTNGACTGRGTC [DNA-EXT]”, the dissociation constant (Kd) (usually a measure of binding affinity in units of concentration) in series [1] (setting [6]) is 48 nM; in series [2] (setting [6]), 12 nM.
On to “TAGCGATACTGCGTGGGTTGGGGCGGGTAGGGCCAGCAGTCTCGTNNNNNNNTGCTCTGACGACCGGGATGGGCGGGGTTGGGTGCGTCATAGCGAT [DNA-DIMER-TT]”, for which the values for the Kd in series [1] (setting [7]) and in series [2] (setting [7]) were 20 nM and 3 nM, respectively.

B1: DNA-LNK-5F (ssDNA)
DNA: TAGCGATACTGCGTGGGTTGGGGCGGGTAGGGCCAGCAGTCTCGT
modifications: 5' fluorescein followed by two hexaethylene glycol spacers [5' fluorescein + two hexaethylene glycol spacers (n1-n3, left out) before T1]
As to B1, the Kd is 12 nM in series [3] and 110 nM in series [4].

B2: biotinylated DNA ligand (ssDNA)
DNA: TAGCGATACTGCGTGGGTTGGGGCGGGTAGGGCCAGCAGTCTCGTT
modifications: biotin attached to 3' end through a linker
B2: the binding result in series [5] was “binds”.
